In patent US20040126882A1, “Regulatable, catalytically active nucleic acids” (priority 2000, published 2004):
Read-outs that look alike come from different tables or passages of the source.

Assays:
[1] = test system: lysozyme-dependent clones; experiment: Specificity of activation of lysozyme-dependent ribozymes by proteins; assay type: biochemical
Description: (§1) Protein inactivation. Standard ligation assays were performed as described above, but in the presence of protein samples that had been pre-treated as follows. Cyt18 protein was denatured by heating for 10 min at 70° C. or by the addition of 6% SDS (0.7% SDS in ligation reaction). Lysozyme was heated 10 min at 100° C. or incubated 10 min at room temperature in the presence of 2 mM DTT (0.3 mM DTT final reaction) without inactivating the protein. The protein was successfully inactivated by heating for […] at 70° C. in the presence of 2 mM DTT. Ligation reactions were performed with 1.3 μM protein in 15 μl reactions incubated 5 min at 25° C.

[2] = test system: Cyt 18-dependent population; experiment: Specificity of activation of Cyt18-dependent ribozymes by proteins; assay type: biochemical; conditions: Cyt18 denatured by heating or SDS
Description: as §1

[3] = biological target: group I self-splicing intron; conditions: cited from earlier work

| Molecule | activation of lysozyme-dependent ribozyme by other proteins [1] | activation of lysozyme-dependent ribozyme by other proteins ([1]; listed as turkey egg white lysozyme) | activation of ribozyme catalysis by denatured Cyt18 [2] | Kd for group I self-splicing intron [3] |
| --- | --- | --- | --- | --- |
| lysozyme from human milk: lysozyme from human milk (protein, UniProt P61626 19-148, looked up) Lysozyme C: KVFERCELARTLKRLGMDGYRGISLANWMCLAKWESGYNTRATNYNAGDRSTDYGIFQINSRYWCNDGKTPGAVNACHLSCSALLQDNIADAVACAKRVVRDPQGIRAWVAWRNRCQNRDVRQYVQGCGV | inactive | – | – | – |
| turkey lysozyme: extremely homologous (98%) turkey lysozyme (protein, UniProt P00703 19-147, looked up) Lysozyme C: KVYGRCELAAAMKRLGLDNYRGYSLGNWVCAAKFESNFNTHATNRNTDGSTDYGILQINSRWWCNDGRTPGSKNLCNIPCSALLSSDITASVNCAKKIASGGNGMNAWVAWRNRCKGTDVHAWIRGCRL | cross-activation | activated | – | – |
| Cyt18: tyrosyl tRNA synthetase from Neurospora mitochondria (protein, UniProt P12063 33-669, looked up) Tyrosine--tRNA ligase, …: LRREFGPKYTAKINEAEENWQARAEAIKKGKKQNTWDLFEERGYVKDTAGTKEHIAELMRTRRIGAYVGIDPTAPSLHVGHLLPLMPLFWMYLEGYKAFTLIGGSTAKIGDPTGRLKSRDHLSSSDATMNMTKIHYQLKKLWENVDTQMRARGYEADWARKRGIVNNNHWWNKQPMLEVLRRVGHALRIGPMLSRDTVKNKMTQGDGVSFAEFTYPIMQGWDWFELFYQQGVQMQIGGSDQYGNIISGLEVVKAARESEPDPQERKYVTPKTALDECVGFTVPLLTDSSGAKFGKSAGNAIWLDPYQTSVFDFYGYFVRRSDQEVENLLKLFTFMPISEITKTMEEHIKDPSKRVAQHTLAREVVTLVHGKQEASAAEDQHRMMYTGQMTIPQVSRAKDAATGGDQYKTISDQPVTLNNAPRIDMILPESLIMGKSIGRILYAAGLASSTTEGHKLAAAQGCYVGGAHRAGGENVTMNPDLISFMPVKLWFPGETQRYLINGNLLILRKGKHNVRVIQMVSDVEYAASGQTYPGQSFTGAVRKLNEIMKNLKEKKLTPEEAKNAVNELQKSSQEKQQGQQIIFPEEKSRQKKDMETKLKQEMIASVKTIDGMMDEKPSVRGDGVKKQTQDDRDPYKW | inactive | – | unable to activate | femptomolar range |
